Measured values published in patent US20160030510.

Biological target: human tau protein, P10636
Sequence (P10636 whole entry, looked up): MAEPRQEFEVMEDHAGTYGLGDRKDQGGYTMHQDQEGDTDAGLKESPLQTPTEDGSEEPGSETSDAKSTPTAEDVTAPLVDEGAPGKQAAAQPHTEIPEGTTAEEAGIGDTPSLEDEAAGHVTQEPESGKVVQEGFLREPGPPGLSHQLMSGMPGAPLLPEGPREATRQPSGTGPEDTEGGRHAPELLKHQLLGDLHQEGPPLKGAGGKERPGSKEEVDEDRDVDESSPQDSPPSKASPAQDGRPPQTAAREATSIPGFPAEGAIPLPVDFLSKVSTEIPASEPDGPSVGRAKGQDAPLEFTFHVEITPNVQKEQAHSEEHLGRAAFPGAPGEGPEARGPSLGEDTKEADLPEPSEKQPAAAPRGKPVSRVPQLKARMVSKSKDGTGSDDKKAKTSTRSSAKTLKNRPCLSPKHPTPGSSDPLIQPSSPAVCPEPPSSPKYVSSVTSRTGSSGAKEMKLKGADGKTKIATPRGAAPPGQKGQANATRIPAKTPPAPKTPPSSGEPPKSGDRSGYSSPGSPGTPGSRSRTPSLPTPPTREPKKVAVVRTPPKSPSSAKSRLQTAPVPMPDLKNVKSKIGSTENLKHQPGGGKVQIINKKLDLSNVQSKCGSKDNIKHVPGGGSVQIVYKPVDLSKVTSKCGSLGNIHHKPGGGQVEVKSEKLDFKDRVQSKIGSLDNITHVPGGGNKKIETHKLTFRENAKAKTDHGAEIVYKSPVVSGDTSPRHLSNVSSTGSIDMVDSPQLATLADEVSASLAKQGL

B1: human MARK4 (microtubule affinity regulating kinase 4) (protein)
chain: MSSRTVLAPGNDRNSDTHGTLGSGRSSDKGPSWSSRSLGARCRNSIASCPEEQPHVGNYRLLRTIGKGNFAKVKLARHILTGREVAIKIIDKTQLNPSSLQKLFREVRIMKGLNHPNIVKLFEVIETEKTLYLVMEYASAGEVFDYLVSHGRMKEKEARAKFRQIVSAVHYCHQKNIVHRDLKAENLLLDAEANIKIADFGFSNEFTLGSKLDTFCGSPPYAAPELFQGKKYDGPEVDIWSLGVILYTLVSGSLPFDGHNLKELRERVLRGKYRVPFYMSTDCESILRRFLVLNPAKRCTLEQIMKDKWINIGYEGEELKPYTEPEEDFGDTKRIEVMVGMGYTREEIKESLTSQKYNEVTATYLLLGRKTEEGGDRGAPGLALARVRAPSDTTNGTSSSKGTSHSKGQRSSSSTYHRQRRHSDFCGPSPAPLHPKRSPTSTGEAELKEERLPGRKASCSTAGSGSRGLPPSSPMVSSAHNPNKAEIPERRKDSTSTPNNLPPSMMTRRNTYVCTERPGAERPSLLPNGKENSSGTPRVPPASPSSHSLAPPSGERSRLARGSTIRSTFHGGQVRDRRAGGGGGGGVQNGPPASPTLAHEAAPLPAGRPRPTTNLFTKLTSKLTRRVADEPERIGGPEVTSCHLPWDQTETAPRLLRFPWSVKLTSSRPPEALMAALRQATAAARCRCRQPQPFLLACLHGGAGGPEPLSHFEVEVCQLPRPGLRGVLFRRVAGTALAFRTLVTRISNDLEL
in vitro kinase assay: phospho-tau, Western blot: the levels of total tau and phospho-tau generated by MARK4 were detected by Western blot analysis
